Measured values as given in paper PMC4663164 (The Biochemical journal, 2015).
One block for each molecule: values may come before it.

What was measured:
[1] = biological target: CK1-phosphorylated HMR-1^1108–1223 (polyhistidine-tagged) (C. elegans); assay: liposome co-flotation
[2] = biological target: HMR-1^S1212E (polyhistidine-tagged HMR-1^1108–1223) (C. elegans); assay: liposome co-flotation
[3] = biological target: HMR-1^S1212E,T1215E,S1218E (polyhistidine-tagged HMR-1^1108–1223) (C. elegans); assay: liposome co-flotation
[4] = biological target: HMR-1^T1215E,S1218E (polyhistidine-tagged HMR-1^1108–1223) (C. elegans); assay: liposome co-flotation
[5] = biological target: the molecule itself; assay: SEC-MALS

fold enhancement in HMP-1/HMP-2 recovery against unphosphorylated HMR-1 [1]: 6 fold | fold increase in HMP-1/HMP-2 recovery against unmodified HMR-1^1108–1223 [2]: 1.8 fold | fold increase in HMP-1/HMP-2 association against unmodified HMR-1^1108–1223 [3]: 2.2 fold | fold increase in HMP-1/HMP-2 binding against unmodified HMR-1^1108–1223 [4]: 1.4 fold
Molecule: HMP-1/HMP-2 complex (untagged, purified) (from UniProt P90947 1-927; O44326 1-678)

B1: recombinant full-length HMP-2 (natural protein, C. elegans, UniProt O44326 1-678, looked up)
chain: MLLHSTNSYSIFTDHEVETRTSRIRSAMFPDWIPPTSAAEATNSTTSIVEMMQMPTQQLKQSVMDLLTYEGSNDMSGLSLPDLVKLMCDHDESVVARAVHRAYMLSREDPNFFNAPGFDHRSFVEALMAASKSSNVNVRRNAIGALSHMSEQRGGPLLIFRSGGLAEIIRMLYDSLESVVHYAVTTLRNLLMHVSDSRAQARALNAVEALTPHLHKTNPKLLAQVADGLYFLLIDDAPSKITFLSLLGPQILVSILREYSDHRKLIYTVVRCIRSLSVCPSNKPALISLGCLPALYVELCTAKDERSQTAILVAMRNLSDSATNEENLTQLIIKLLEIIRVANDGMTACACGTLSNLTCNNTRNKQTVCSHGGIDALVTAIRRLPEVEEVTEPALCALRHCTARHSLAEEAQSELRFCQAFPVILDQLETLRTPVIKAALGVIRNSALLQTNLIELTQEQTANGHTAVSLTMDILRRAITAIEENPDIAVDGVPMWGVIEGAVSALHQLANHPAVAAACCDDIGQVGNPECPPFLDLLHRLLAHPRLGSMDDEVLEREILGLLYQLSKRPDGARAVESTGVSALLMESRGSQYKSVVTYANGVLSNLKRGDSAAIMNMSNSYDYEMSGSAADWQRDGLERELFAEMYPTNDGGHSESINMALNNSQMRPNHNWYDTDL
stoichiometry N [5]: 2
